For 2 substances, stoichiometry N results are on record in article PMC4680927.

Experiment [1] has as its target N-acetyltransferase C-terminal region (CTR) of RmNag (Rhizomucor miehei). Description: not stated; NTR and CTR 'in solution'; the sentence names no method (it follows the SEC estimate for the full-length protein).
Experiment [2] deals with full-length β-N-acetylglucosaminidase from Rhizomucor miehei (RmNag) (Rhizomucor miehei). Description: SEC; size-exclusion chromatography of full-length RmNag; native molecular mass approx. 230 kDa; data not shown. (In gel filtration, larger molecules generally elute earlier.)

As a reminder, the stoichiometry N is a count of units in the complex or per binding partner. As for “N-acetyltransferase C-terminal region (CTR) of RmNag (domain or fragment)”, the stoichiometry N in experiment [1] is 2.
With “full-length β-N-acetylglucosaminidase from Rhizomucor miehei (RmNag) (enzyme)”, in experiment [2], the stoichiometry N amounted to 2.
